Measured values as given in patent US20030228623A1.
Values joined by “and” are separate entries in the source; they are usually repeats but may differ in a detail not shown here. Identical values can stand only once.

Key:
[1] = biological target: streptavidin (streptavidin-coated magnetic beads, Dynal) (UniProt P22629); assay: streptavidin-coated beads capture; phage from host cells grown without added biotin; 109,000 phage used
[2] = biological target: modified streptavidin Stv-38; assay: phage on microtiter wells coated with Stv-38, washed, eluted with 3 mM biotin, plated on TG1 cells
[3] = biological target: modified streptavidin Stv-38; assay: phage on microtiter wells coated with Stv-38, washed, eluted with 3 mM biotin, plated on TG1 cells; input 250,000
[4] = biological target: streptavidin (streptavidin-coated magnetic beads, Dynal) (UniProt P22629); assay: phage incubated with streptavidin-coated beads, washed, released with Factor Xa, plated on TG1 cells; 96,500 phage used
[5] = biological target: streptavidin (streptavidin-coated magnetic beads, Dynal) (UniProt P22629); assay: phage incubated with streptavidin-coated beads, washed, released with Factor Xa, plated on TG1 cells
[6] = biological target: streptavidin (streptavidin-coated magnetic beads, Dynal) (UniProt P22629); assay: streptavidin-coated beads capture; phage from host cells grown without added biotin
[7] = biological target: streptavidin (streptavidin-coated magnetic beads, Dynal) (UniProt P22629); assay: spores biotinylated in vivo, streptavidin-coated magnetic beads, washed, plated; input 10,000
[8] = biological target: streptavidin (streptavidin-coated magnetic beads, Dynal) (UniProt P22629); assay: spores biotinylated in vivo, streptavidin-coated magnetic beads, washed, plated
[9] = biological target: streptavidin (streptavidin-coated magnetic beads, Dynal) (UniProt P22629); assay: spores biotinylated in vivo, streptavidin-coated magnetic beads, washed, plated; input 1,075,900
[10] = biological target: streptavidin (streptavidin-coated magnetic beads, Dynal) (UniProt P22629); assay: spores incubated in vitro with BirA, biotin and ATP, then streptavidin-coated beads
[11] = biological target: streptavidin (streptavidin-coated magnetic beads, Dynal) (UniProt P22629); assay: spores incubated in vitro with BirA, biotin and ATP, then streptavidin-coated beads; input 919,600
[12] = biological target: streptavidin (streptavidin-coated magnetic beads, Dynal) (UniProt P22629); assay: spores (in vivo), streptavidin-coated magnetic beads, washed, plated; input 814,900
[13] = biological target: streptavidin (streptavidin-coated magnetic beads, Dynal) (UniProt P22629); assay: spores incubated in vitro with BirA, biotin and ATP, then streptavidin-coated beads; input 234,900
[14] = biological target: streptavidin (streptavidin-coated magnetic beads, Dynal) (UniProt P22629); assay: spores (in vivo), streptavidin-coated magnetic beads, washed, plated
[15] = biological target: streptavidin (streptavidin-coated magnetic beads, Dynal) (UniProt P22629); assay: spores biotinylated in vivo, streptavidin-coated magnetic beads, washed, plated; input 919,300
[16] = biological target: streptavidin (streptavidin-coated magnetic beads, Dynal) (UniProt P22629); assay: spores incubated in vitro with BirA, biotin and ATP, then streptavidin-coated beads; input 176,900
[17] = biological target: streptavidin (streptavidin-coated magnetic beads, Dynal) (UniProt P22629); assay: phage incubated with streptavidin-coated beads, washed, released with Factor Xa, plated on TG1 cells; 97,500 phage used
[18] = biological target: modified streptavidin Stv-38; assay: phage on microtiter wells coated with Stv-38, washed, eluted with 3 mM biotin, plated on TG1 cells; input 1,590,500
[19] = biological target: modified streptavidin Stv-38; assay: phage on microtiter wells coated with Stv-38, washed, eluted with 3 mM biotin, plated on TG1 cells; input 159,500
[20] = biological target: streptavidin (streptavidin-coated magnetic beads, Dynal) (UniProt P22629); assay: spores (in vivo), streptavidin-coated magnetic beads, washed, plated; input 843,900
[21] = biological target: streptavidin (streptavidin-coated magnetic beads, Dynal) (UniProt P22629); assay: spores incubated in vitro with BirA, biotin and ATP, then streptavidin-coated beads; input 417,600

Chain of spores of PY79-BirA-3G (Fusion 3: Fusion 1 with peptide-G, with the last 41 amino acids of CotB added to its C-terminus) (P07789 whole entry, the tested form may be a part): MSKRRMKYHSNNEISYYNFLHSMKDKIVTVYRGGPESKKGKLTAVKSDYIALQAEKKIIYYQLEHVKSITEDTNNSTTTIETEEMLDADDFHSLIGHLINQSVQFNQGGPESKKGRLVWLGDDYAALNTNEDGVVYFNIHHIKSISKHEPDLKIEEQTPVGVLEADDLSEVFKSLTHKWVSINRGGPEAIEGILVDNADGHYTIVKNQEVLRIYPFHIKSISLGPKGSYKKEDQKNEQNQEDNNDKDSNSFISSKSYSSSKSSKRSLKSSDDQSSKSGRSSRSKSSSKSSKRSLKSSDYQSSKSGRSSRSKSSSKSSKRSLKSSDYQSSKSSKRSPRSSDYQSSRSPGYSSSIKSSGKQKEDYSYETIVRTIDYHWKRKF
Chain of spores of PY79-BirA-3K (Fusion 3: Fusion 1 with peptide-K, with the last 41 amino acids of CotB added to its C-terminus) (P07789 whole entry, the tested form may be a part): as above
Chain of streptavidin (streptavidin-coated magnetic beads, Dynal) (P22629 37-163 limits assumed): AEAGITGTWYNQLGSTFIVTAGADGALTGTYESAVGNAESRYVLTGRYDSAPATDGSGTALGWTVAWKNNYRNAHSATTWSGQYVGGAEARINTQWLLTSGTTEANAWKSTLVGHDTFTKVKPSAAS
Chain of bacteriophage G (M13 phage displaying on pIII the control peptide with the lysine recognized by BirA replaced by glycine) (P69168 19-424): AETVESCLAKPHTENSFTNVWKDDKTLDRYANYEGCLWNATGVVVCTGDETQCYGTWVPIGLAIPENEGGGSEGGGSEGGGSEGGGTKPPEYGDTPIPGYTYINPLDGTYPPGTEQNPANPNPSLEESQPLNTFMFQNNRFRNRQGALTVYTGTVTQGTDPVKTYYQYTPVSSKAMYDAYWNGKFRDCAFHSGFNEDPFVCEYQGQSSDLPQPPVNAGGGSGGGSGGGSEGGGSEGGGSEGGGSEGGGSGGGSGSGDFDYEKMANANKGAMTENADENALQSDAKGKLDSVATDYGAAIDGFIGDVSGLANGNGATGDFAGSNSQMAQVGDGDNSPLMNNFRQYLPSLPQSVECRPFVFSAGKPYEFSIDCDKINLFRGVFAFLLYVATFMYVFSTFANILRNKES
Chain of bacteriophage K (M13 phage displaying on coat protein pIII the 33-residue peptide recognized by BirA) (P69168 19-424): as above
Chain of spores of PY79-BirA-1K (Fusion 1: peptide-K added to the C-terminus of CotB following residue 275) (P07789 1-275): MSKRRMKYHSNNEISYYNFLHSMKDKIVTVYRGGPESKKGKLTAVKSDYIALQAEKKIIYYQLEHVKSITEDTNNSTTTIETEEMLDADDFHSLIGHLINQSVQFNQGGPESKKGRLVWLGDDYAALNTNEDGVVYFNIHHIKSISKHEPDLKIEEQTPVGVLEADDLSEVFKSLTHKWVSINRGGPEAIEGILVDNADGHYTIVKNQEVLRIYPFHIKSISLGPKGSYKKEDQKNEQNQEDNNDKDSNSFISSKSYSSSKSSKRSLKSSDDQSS
Chain of spores of PY79-BirA-1G (Fusion 1: peptide-G added to the C-terminus of CotB following residue 275) (P07789 1-275): as above
Chain of spores of PY79-BirA-2K (Fusion 2: peptide-K at the amino end of the first 275 amino acids of CotB) (P07789 1-275): as above
Chain of spores of PY79-BirA-2G (Fusion 2: peptide-G at the amino end of the first 275 amino acids of CotB) (P07789 1-275): as above

bacteriophage K (M13 phage displaying on coat protein pIII the 33-residue peptide recognized by BirA) (from UniProt P69168 19-424)
# of bound phage [1]: 850 phage
Ratio (%) [2]: 0.504% and 0.852%
Bound [3]: 2130 phage
# of bound phage able to bind TG1 cells [4]: 1080 phage
% bound [5]: 1.11%
% bound [6]: 0.78%

spores of PY79-BirA-2K (Fusion 2: peptide-K at the amino end of the first 275 amino acids of CotB) (from UniProt P07789 1-275)
Out (#) [7]: 920 spores
Ratio (%) [8]: 9.2%

spores of PY79-BirA-1K (Fusion 1: peptide-K added to the C-terminus of CotB following residue 275) (from UniProt P07789 1-275)
Out (#) [9]: 300 spores
Ratio (%) [8]: 0.0279%
Ratio (%) [10]: 3.26%
Out [11]: 30000 spores

spores of PY79-BirA-3G (Fusion 3: Fusion 1 with peptide-G, with the last 41 amino acids of CotB added to its C-terminus) (from UniProt P07789 1-275; P07789 340-380)
Out (#) [12]: 240 spores
Out [13]: 250 spores
Ratio (%) [10]: 0.106%
Ratio (%) [14]: 0.0049%

spores of PY79-BirA-3K (Fusion 3: Fusion 1 with peptide-K, with the last 41 amino acids of CotB added to its C-terminus) (from UniProt P07789 1-275; P07789 340-380)
Out (#) [15]: 260 spores
Ratio (%) [8]: 0.0283%
Ratio (%) [10]: 0.071%
Out [16]: 125 spores

bacteriophage G (M13 phage displaying on pIII the control peptide with the lysine recognized by BirA replaced by glycine) (from UniProt P69168 19-424)
Ratio (%) [2]: 0.002% and 0.004%
# of bound phage able to bind TG1 cells [17]: 13 phage
Bound [18]: 27 phage
% bound [5]: 0.013%
Bound [19]: 7 phage

spores of PY79-BirA-2G (Fusion 2: peptide-G at the amino end of the first 275 amino acids of CotB) (from UniProt P07789 1-275)
Ratio (%) [14]: 0%

spores of PY79-BirA-1G (Fusion 1: peptide-G added to the C-terminus of CotB following residue 275) (from UniProt P07789 1-275)
Ratio (%) [10]: 0.299%
Out (#) [20]: 100 spores
Ratio (%) [14]: 0.0118%
Out [21]: 1250 spores
